This experiment has as its target VHL-ELOB-ELOC (VBC) complex (UniProt P40337 54-213; Q15370 1-104; Q15369 17-112). Description: fluorescence polarisation; competitive FP for fragment screening, 384-well plates; 0.5 uM VBC, 20 nM FITC peptide, 10 mM HEPES pH 7.5, 0.0025% Tween 20, 50 mM NaCl, 1 mM EDTA, 1 mM DTT; small-molecule competitors (VH032 as reference). To be noted: both partners purified. A general note: In fluorescence polarisation assays a small probe gives low polarisation when free and higher when bound to something large.

Non-standard residues stand in square brackets, D forms with d. No end group written: not given here. *: point of attachment. FITC = O=C1OC2(c3ccc(O)cc3Oc3cc(O)ccc32)c2ccc(NC(=S)*)cc21; Hyp = O=C(O)[C@@H]1C[C@@H](O)CN1

In the case of {FITC}-LEALA[Hyp]YIPA [FITC-LEALA-HyP-YIPA peptide], the binding result was “binds”.

Values taken from paper PMC11779939, “Identification of novel 7-hydroxycoumarin derivatives as ELOC binders with potential to modulate CRL2 complex formation” (Scientific Reports, 2025).
